Test results from patent publication US8034904B2, “Anti-IGF-I receptor antibody” (Immunogen Inc., priority 2002, dated 2011).

Tests used:
[1] = biological target: T1, IGF-I receptor of MCF-7 cells (Homo sapiens, UniProt P08069); assay: Immunoprecipitation of IGF-I receptor from MCF-7 lysate; type: binding; conditions: MCF-7 lysate (human)
T1 construct: human breast cancer MCF-7 cells, which expressed IGF-I receptor; endogenous in cells; host or cells: MCF-7 human breast cancer cells
Source text: A Western blot of the EM164 antibody immunoprecipitate was detected using a rabbit polyclonal anti-IGF-I receptor beta chain (C-terminus) antibody (Santa Cruz Biotechnology) and a goat-anti-rabbit-IgG-antibody-horseradish peroxidase conjugate, followed by washes and enhanced chemiluminescence (ECL) detection.

Colo 205 (colon) cells = assay: Growth and survival of Colo 205 cells (MTT assay); type: cell-based, human
Experimental: (§1) Several human tumor cell lines were tested in serum-free conditions for their growth and survival response to IGF-I. These cell lines were treated with EM164 antibody in the presence of IGF-I, IGF-II, or serum, and their growth and survival responses were measured using an MTT assay after 2-4 days. Approximately 1500 cells were plated in a 96-well plate in regular medium with serum, which was replaced with serum-free medium the following day (either serum-free RPMI medium supplemented with transferrin and BSA, or phenol-red free medium as specified by Dufourny, B. et al., 1997, J. Biol. Chem., 272, 31163-31171). After one day of growth in serum-free medium, the cells were incubated with about 75 μL of 10 μg/mL antibody for 30 min.-3 h, followed by the addition of 25 μL of IGF-I (or IGF-II or serum) solution to obtain a final concentration of 10 ng/mL IGF-I, or 20 ng/mL IGF-II, or 0.04-10% serum. In some experiments, the cells were stimulated first with IGF-I for 15 min before the addition of EM164 antibody, or both IGF-I and EM164 antibody were added together. The cells were then allowed to grow for another 2-3 days. A solution of MTT (3-(4,5)-dimethylthiazol-2-yl)-2,5-diphenyltetrazolium bromide; 25 μL of a 5 mg/mL solution in PBS) was then added and the cells were returned to the incubator for 2-3 h. The medium was then removed and replaced by 100 μL DMSO, mixed, and the absorbance of the plate was measured at 545 nm.

[2] = tested on: NCI-H838 lung cancer cells; assay: Apoptosis: caspase-cleaved cytokeratin CK18 in NCI-H838 cells; type: cell-based, human; conditions: IGF-I or serum, presence vs absence of EM164, 1 day
Experimental: For measurement of apoptosis, cleavage of the cytokeratin CK18 protein by caspase was measured in NCI-H838 lung cancer cells incubated with IGF-I or serum in the presence or absence of EM164 for 1 day (FIG. 26).

[3] = tested on: insulin receptor substrate-1 (IRS-1); assay: IGF-I-stimulated IRS-1 phosphorylation in MCF-7 cells (ELISA, associated p85 PI-3-kinase); type: cell-based, human
Experimental: In FIG. 5, MCF-7 cells were treated with 5 μg/mL antibody (EM164 or IR3) in serum-free medium for 2 h, followed by stimulation with 50 ng/mL IGF-I for 10 min at 37° C. Anti-IRS-1 antibody (rabbit polyclonal; Upstate Biotechnology) was indirectly captured by incubation with coated goat-anti-rabbit-IgG antibody on an ELISA plate, which was then used to capture IRS-1 from the cell lysate samples by overnight incubation at 4° C. The wells were then incubated with mouse monoclonal anti-p85-PI-3-kinase antibody (Upstate Biotechnology) for 4 h, followed by treatment with goat-anti-mouse-IgG-antibody-HRP conjugate for 30 min. The wells were then washed and detected using ABTS/H2O2 substrate (FIG. 5).

A 549 cells = assay: Growth and survival of A 549 cells (MTT assay); type: cell-based, human; conditions: 5-10 μg/mL EM164, 10 ng/mL IGF-I
Experimental: as §1, with “A solution of MTT (3-(4,5)-dimethylthiazol-2-yl)-2,5-diphenyltetrazolium bromide; 25 μL of a 5 mg/mL solution in PBS) was then added and the cells were returned to the incubator for 2-3 h.” left out

[4] = biological target: T2, IGF-I receptor on NCI-H838 cells (Homo sapiens, UniProt P08069); assay: IGF-I displacement in NCI-H838 lung cancer cells; type: cell-based; conditions: 4° C., 2 h
T2 construct: endogenous in cells; host or cells: NCI-H838 lung cancer cells
Experimental: (or at 4° C.) for 1 to 2 h. […] (or at 4° C.) for 30 min to 4 h. Cells were then washed with PBS and lysed in lysis buffer containing 1% NP-40 at 4° C.

[5] = tested on: truncated IGF-I receptor alpha chain construct (residues 1-468 fused to 704-719, myc tag); assay: Binding to truncated IGF-I receptor alpha chain construct; set-up: species or system human
Source text: The binding domain of EM164 antibody was further characterized using a truncated alpha chain construct, which comprised the cysteine rich domain flanked by L1 and L2 domains (residues 1-468) fused with the 16-mer-C-terminus piece (residues 704-719) and which was terminated by a C-terminus epitope tag. This smaller IGF-I receptor, which lacked residues 469-703, has been reported to bind IGF-I, although less tightly compared to the native full-length IGF-I receptor (Molina, L. et al., 2000, FEBS Letters, 467, 226-230; Kristensen, C. et al., 1999, J. Biol. Chem., 274, 37251-37356). Thus, a truncated IGF-I receptor alpha chain construct was prepared comprising residues 1-468 fused to the C-terminus piece that is residues 704-719 and flanked by a C-terminus myc epitope tag. A stable cell line which expressed this construct, and which also expresses the construct transiently in human embryonic kidney 293T cells, was constructed.

NCI-H596 cells = assay: Growth and survival of NCI-H596 cells (MTT assay); type: cell-based, human
Experimental: as §1

[6] = tested on: SaOS-2 (osteosarcoma) cells; assay: Growth and survival of SaOS-2 cells (MTT assay); type: cell-based, human
Experimental: as §1

[7] = biological target: T3, IGF-I receptor on MCF-7 cells (Homo sapiens, UniProt P08069); assay: Inhibition of binding of biotinylated IGF-I to MCF-7 cells; type: cell-based; conditions: 5 μg/mL antibody, 2 h; 50 ng/mL biotinylated IGF-I, 20 min, 37° C.
T3 construct: human breast cancer MCF-7 cells, which expressed IGF-I receptor; endogenous in cells; host or cells: MCF-7 human breast cancer cells
Experimental: The binding of IGF-I to human breast cancer MCF-7 cells was inhibited by EM164 antibody (FIG. 3). […] The cells were then washed twice with serum-free medium to remove unbound biotin-IGF-I, and were then lysed in 50 mM HEPES, pH 7.4, containing 1% NP-40 and protease inhibitors. An Immulon-2HB ELISA plate was coated with a mouse monoclonal anti-IGF-I receptor beta chain antibody and was used to capture the IGF-I receptor and bound biotin-IGF-I from the lysate. […] The wells were washed, incubated with streptavidin-horseradish peroxidase conjugate, washed again, and then detected using ABTS/H2O2 substrate.

[8] = tested on: SK-N-SH (neuroblastoma) cells; assay: Growth and survival of SK-N-SH cells (MTT assay); type: cell-based, human
Experimental: as §1

[9] = 5-10 μg/mL EM164, 10 ng/mL IGF-I
[10] = 5-10 μg/mL EM164, MTT or colony formation assay

B1: EM164: murine anti-IGF-I receptor monoclonal antibody, IgG1 with kappa light chain, hybridoma ATCC PTA-4457; heavy SEQ ID NO:7, light SEQ ID NO:8 (antibody)
heavy: QVQLQQSGAELVKPGASVKLSCKASGYTFTSYWMHWVKQRPGQGLEWIGEINPSNGRTNYNEKFKRKATLTVDKSSSTAYMQLSSLTSEDSAVYYFARGRPDYYGSSKWYFDVWGAGTTVTVSS
light: DVLMTQTPLSLPVSLGDQASISCRSSQSIVHSNVNTYLEWYLQKPGQSPKLLIYKVSNRFSGVPDRFSGSGSGTDFTLRISRVEAEDLGIYYCFQGSHVPPTFGGGTKLEIKR
modifications: antibody heavy chain; antibody light chain
B1 was tested, and the “immunoprecipitation of IGF-I receptor” value [1] was “can be used for immunoprecipitation of IGF-I receptor”, the “Inhibition by EM164 antibody of IGF-I-stimulated growth in serum-free medium” value (“Inhibition … in serum-free medium” below) (Colo 205 (colon) cells; [9]) was 50% and the “% Inhibition by EM164 antibody of Growth/survival of cells in 1.25-10% serum” value (Colo 205 (colon) cells; [10]) was “Yes”. The “caspase-cleaved CK18 levels” value [2] was “greater cleaved CK18 levels”, the “inhibition of IGF-1-stimulated IRS-1 phosphorylation” value ([3]; 5 μg/mL antibody 2 h, 50 ng/mL IGF-I 10 min, compared with IR3) was “more effective” and the “agonistic activity on IRS-1 phosphorylation” value ([3]; in the absence of IGF-I) was “did not show any agonistic activity”. The “Inhibition … in serum-free medium” value (A 549 cells) was 80%, the “decrease in the bound biotin-IGF-I” value [4] was 80% and the “binding to truncated IGF-I receptor alpha chain construct” value [5] was “strong binding”. For the same molecule, the “Inhibition … in serum-free medium” value (NCI-H596 cells; [9]) was 100%, the “% Inhibition by EM164 antibody of Growth/survival of cells in 1.25-10% serum” value (NCI-H596 cells; [10]) was “Weakly” and the “Inhibition … in serum-free medium” value [6, 9] was 100%. The “% Inhibition by EM164 antibody of Growth/survival of cells in 1.25-10% serum” value [6, 10] was “Yes”, the “inhibition of IGF-I binding to MCF-7 cells” value [7] was “essentially quantitative” and the “% Inhibition by EM164 antibody of Growth/survival of cells in 1.25-10% serum” value ([8]; 5-10 μg/mL EM164) was 30-50%. The “Inhibition … in serum-free medium” value [8, 9] was 85%.
